Numbering of substitutions follows the chain as printed.
T1: animal free recombinant human IL-4 (AF-200-04: Peprotech, Inc.) (human, UniProt P05112 25-153)
T1 construct: Bought reagent
T1 sequence (looked up): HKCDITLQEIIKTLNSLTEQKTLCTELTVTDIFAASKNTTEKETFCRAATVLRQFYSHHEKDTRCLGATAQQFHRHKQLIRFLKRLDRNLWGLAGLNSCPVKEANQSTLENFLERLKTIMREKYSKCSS

T2: interleukin 8 (CXCL8) (100-175: Shenandoah Biotechnology, Inc.) (UniProt P10145 28-99)
T2 construct: the antibodies tested are mouse anti-human IL-8 antibodies; also called IL-8
T2 sequence (looked up): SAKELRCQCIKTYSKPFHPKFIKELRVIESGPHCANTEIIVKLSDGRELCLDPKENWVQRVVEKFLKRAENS

B1: human anti-IL-4 antibody (PDB: 5FHX), original (unmodified) (antibody, human IgG1, kappa, V domains shown)
VH: AVQLQQSGPELVKPGASVKISCKASGYSFTSYWIHWIKQRPGQGLEWIGMIDPSDGETRLNQRFQGRATLTVDESTSTAYMQLRSPTSEDSAVYYCTRLKEYGNYDSFYFDVWGAGTLVTVSS
VL: DIQMTQSPASLSVSVGDTITLTCHASQNIDVWLSWFQQKPGNIPKLLIYKASNLHTGVPSRFSGSGSGTGFTLTISSLQPEDIATYYCQQAHSYPFTFGGGTKLEIKR
notes: IgG with full heavy and light chains; also called original anti-IL-4 antibody
B2: R4 variant of anti-IL-4 antibody (antibody, human IgG1, kappa, V domains shown)
VH: B1 VH
VL: B1 VL with S63R, S65R, S67R, G70R
notes: IgG; light chain positions 63, 65, 67, 70 (Chothia) changed to Arg
B3: R3 variant of anti-IL-4 antibody (antibody, human IgG1, kappa, V domains shown)
VH: B1 VH
VL: B1 VL with S63R, S65R, S67R
notes: IgG; light chain positions 63, 65, 67 (Chothia) changed to Arg
B4: mouse anti-human IL-6 antibody (clone 58-1), original (unmodified) (Fab, V domains shown, not shown: a dimerising Fc or GST)
VH: EVQLQQSGPELVKPGASVKMSCKASGYTFTSYVMHWVKQKPGQGLEWIGYINPYNDGTKYNEKFKGKATLTSDKSSSTAYMELSSLTSEDSAVYYCAREGYGNLERDCWGQGTSVTVSS
VL: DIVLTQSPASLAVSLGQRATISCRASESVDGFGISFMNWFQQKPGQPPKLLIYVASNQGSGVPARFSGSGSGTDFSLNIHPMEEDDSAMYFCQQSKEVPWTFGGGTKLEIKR
notes: The heavy entry is VH-CH1 with part of the hinge; the light entry holds only the variable domain; Purified on Ni-NTA, so a His tag is implied but not described; also called Anti-IL-6 antibody (clone 58-1)
B5: R5 variant of anti-IL-6 antibody (clone 58-1) (Fab, V domains shown, not shown: a dimerising Fc or GST)
VH: B4 VH
VL: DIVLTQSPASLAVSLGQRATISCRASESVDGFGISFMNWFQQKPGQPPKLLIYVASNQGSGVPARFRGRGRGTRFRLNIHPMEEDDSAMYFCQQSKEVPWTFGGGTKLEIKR
notes: Light chain positions 63, 65, 67, 70, 72 (Chothia) changed to Arg; Fab
B6: R3 variant of anti-IL-6 antibody (clone 58-1) (Fab, V domains shown, not shown: a dimerising Fc or GST)
VH: B4 VH
VL: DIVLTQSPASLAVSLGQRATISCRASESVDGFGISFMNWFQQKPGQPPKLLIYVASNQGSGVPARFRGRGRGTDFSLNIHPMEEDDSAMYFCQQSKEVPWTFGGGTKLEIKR
notes: Light chain positions 63, 65, 67 (Chothia) changed to Arg; Fab; a His tag is implied by Ni-NTA purification but not described
B7: R4 variant of anti-IL-6 antibody (clone 58-1) (Fab, V domains shown, not shown: a dimerising Fc or GST)
VH: B4 VH
VL: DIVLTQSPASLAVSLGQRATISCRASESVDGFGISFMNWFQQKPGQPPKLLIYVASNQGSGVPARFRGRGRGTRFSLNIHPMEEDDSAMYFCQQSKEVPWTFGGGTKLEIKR
notes: Light chain positions 63, 65, 67, 70 (Chothia) changed to Arg; Fab
B8: mouse anti-human IL-6 antibody (clone 44-15), original (unmodified) (Fab, V domains shown, not shown: a dimerising Fc or GST)
VH: DVQLQESGPGLVKPSQTVSLTCTVTGISITTGNYRWSWIRQFPGNKLEWIGYIYYSGAITYNPSLTSRTTITRDTSMNQFFLEMISLTAEDTATYYCARDRYDYAVDFWGQGTSVTVSS
VL: DIQMTQSPASLSASVGETVTITCRSSENIYSFLTWFQQRQGKSPHLLVYYANTLAEGVPSRFSGSGSGTQFSLQINSLQPEDFGTYYCQHHYGTPWTFGGGTRLEIKR
notes: Fab; the light entry holds only the variable domain; a His tag is implied by Ni-NTA purification but not described; also called Anti-IL-6 antibody (clone 44-15)
B9: R5 variant of anti-IL-6 antibody (clone 44-15) (Fab, V domains shown, not shown: a dimerising Fc or GST)
VH: B8 VH
VL: B8 VL with S63R, S65R, S67R, Q70R, S72R
notes: as for B5
B10: R3 variant of anti-IL-6 antibody (clone 44-15) (Fab, V domains shown, not shown: a dimerising Fc or GST)
VH: B8 VH
VL: B8 VL with S63R, S65R, S67R
notes: Light chain positions 63, 65, 67 (Chothia) changed to Arg; Fab
B11: R4 variant of anti-IL-6 antibody (clone 44-15) (Fab, V domains shown, not shown: a dimerising Fc or GST)
VH: B8 VH
VL: B8 VL with S63R, S65R, S67R, Q70R
notes: as for B7
B12: mouse anti-human IL-8 antibody (clone 166-1), original (unmodified) (Fab, V domains shown, not shown: a dimerising Fc or GST)
VH: EVKLVESGGGLVKPGGSLKLSCAASGFTFNNYAMSWVRQTPEKRLEWVASISSGGNTYYPDSVKGRFTLSRDNARNILYLQMSRLRSEDTAMYYCARDKLRLPNWYFDVWGAGTTVTVSS
VL: DIVLTQSPPSLAVSLGQRATISCKASQSVDYDGDSYMNWYQQKPGQPPKVLIYGASNLESGIPARFSGSGSGTDFTLNIYPVEEEDAATYYCQQSNEDPPTFGGGTKLEIKR
notes: Fab; the light entry holds only the variable domain; a His tag is implied by Ni-NTA purification but not described; also called Anti-IL-8 antibody (clone 166-1)
B13: R4 variant of anti-IL-8 antibody (clone 166-1) (Fab, V domains shown, not shown: a dimerising Fc or GST)
VH: B12 VH
VL: B12 VL with S67R, S69R, S71R, D74R
notes: as for B7
B14: R5 variant of anti-IL-8 antibody (clone 166-1) (Fab, V domains shown, not shown: a dimerising Fc or GST)
VH: B12 VH
VL: B12 VL with S67R, S69R, S71R, D74R, T76R
notes: as for B5
B15: R3 variant of anti-IL-8 antibody (clone 166-1) (Fab, V domains shown, not shown: a dimerising Fc or GST)
VH: B12 VH
VL: B12 VL with S67R, S69R, S71R
notes: as for B10
B16: mouse anti-human IL-8 antibody (clone 146-1), original (unmodified) (Fab, V domains shown, not shown: a dimerising Fc or GST)
VH: EVQLVESGGGLVKPGGSLKLSCAASGFTFSSYAMSWVRQTPEKRLEWVATISNGGSYTYYPDSLKGRFTISRDNAKNTLYLQMSSLRSEDTAIYYCARGITGGVYFDYWGQGTTLTVSS
VL: B8 VL with S25A, F32Y, T34A, F36Y, R39K, Y50D, N52E, Q74K, T85S, R103K
notes: Fab; the light entry holds only the variable domain; a His tag is implied by Ni-NTA purification but not described; also called Anti-IL-8 antibody (clone 146-1)
B17: R5 variant of anti-IL-8 antibody (clone 146-1) (Fab, V domains shown, not shown: a dimerising Fc or GST)
VH: B16 VH
VL: DIQMTQSPASLSASVGETVTITCRASENIYSYLAWYQQKQGKSPHLLVYDAETLAEGVPSRFRGRGRGTRFRLKINSLQPEDFGSYYCQHHYGTPWTFGGGTKLEIKR
notes: as for B5
B18: R4 variant of anti-IL-8 antibody (clone 146-1) (Fab, V domains shown, not shown: a dimerising Fc or GST)
VH: B16 VH
VL: B17 VL with R72S
notes: as for B7
B19: R3 variant of anti-IL-8 antibody (clone 146-1) (Fab, V domains shown, not shown: a dimerising Fc or GST)
VH: B16 VH
VL: B17 VL with R70Q, R72S
notes: as for B10

target: T1, animal free recombinant human IL-4 …; assay: ELISA; affinity ratio with the original antibody as 1.0
Protocol: (§1) Affinity of the original anti-IL-4 antibody and variants was measured by ELISA method. As an antigen, an animal free recombinant human IL-4 (AF-200-04: Peprotech, Inc.) was used. The IL-4 was diluted with 1% BSA/TBS to prepare an antigen solution (5 μg/mL). Each of the original anti-IL-4 antibody, R3 variant and R4 variant was diluted with 1% BSA/TBS to prepare an antibody solution (1000 ng/mL, 250 ng/mL, 62.5 ng/mL, 15.63 ng/mL, 3.91 ng/mL, 0.98 ng/mL, and 0.244 ng/mL). As a detection antibody, an HRP-labeled anti-human IgG antibody (Bethyl Laboratories) was used. The detection antibody was diluted with 1% BSA/TBS to prepare a detection antibody solution (100 ng/mL).
(§2) The antigen solution was dispensed at 50 μL per well into a 96 well plate for ELISA (Thermo Fisher Scientific), and the plate was incubated at 4° C. overnight. The plate was washed 3 times with 200 μL of a washing solution per well (0.05% Tween 20-containing TBS). A blocking solution (1% BSA-containing TBS) was dispensed at 250 μL per well, and the plate was incubated at 4° C. overnight. The blocking solution was removed, the […] solution was dispensed at 50 μL of antibody solution per well into the plate, and the plate was incubated at room temperature for 15 minutes. After washing the plate 3 times with a washing solution, the detection antibody solution was dispensed at 50 μL per well, and the plate was incubated at room temperature for 1 hour. After washing the plate 3 times with a washing solution, a substrate solution (Seracare) was dispensed at 100 μL per well into the plate, and the absorbance at 450 nm was measured with a plate reader SpectraMax 190 Microplate Reader (Molecular Devices, LLC.).

Binder | EC50 ratio
B1 | 1
B2 | 1.7
B3 | 1.7

target: T1, animal free recombinant human IL-4 …; assay: ELISA, IL-4 coated on plate, HRP anti-human IgG detection
Protocol: as §1, §2

Binder | EC50
B1 | 0.304 µg/mL
B2 | 0.176 µg/mL
B3 | 0.18 µg/mL

target: T3, human IL6 protein, His and GST tags (active) (GTX00094-pro: GeneTex, Inc.) (human, UniProt P05231 30-212, limits assumed); assay: SPR (Biacore 8K); affinity ratio with the original antibody as 1.0
T3 construct: Bought reagent; not shown: His and GST tags
Protocol: (§3) (4.1) For anti-IL-6 antibody, anti-IL-8 antibody, and anti-IL-12 antibody Affinity of the original antibodies and variants was measured using Biacore (registered trademark) 8K (Cytiva). As antigens, human IL6 protein, His and GST tags (active) (GTX00094-pro: GeneTex, Inc.), interleukin 8 (CXCL8) (100-175: Shenandoah Biotechnology, Inc.), and human IL 12 protein (Recombinant His, C-terminus) (aa23-328) (LS-G134297-50: LSBio, Inc.) were used. The antigen was immobilized to a sensor chip for Biacore (registered trademark) Series S Sensor Chip CM4 (GE Healthcare). Each antibody solution obtained in the above (3.2) was diluted to prepare an antibody solution for measurement. The concentration of each antibody in the antibody solution for measurement was as follows. In the solutions of the anti-IL-6 antibody (58-1) and its R3, R4 and R5 variants, the concentration was 100 nM, 50 nM, 25 nM, 12.5 nM and 6.25 nM. In the solution of the anti-IL-6 antibody (44-15), the concentration was 100 nM, 50 nM, 25 nM, 12.5 nM and 6.25 nM, and in the solutions of its R3, R4 and R5 variants, the concentration was 50 nM, 25 nM, 12.5 nM, 6.25 nM and 3.13 nM. In the solutions of the anti-IL-8 antibody (166-1) and its R3, R4 and R5 variants, the concentration was 100 nM, 50 nM, 25 nM, 12.5 nM and 6.25 nM. In the anti-IL-8 antibody (146-1) solution, the concentration was 100 nM, 50 nM, 25 nM, 12.5 nM and 6.25 nM, in the solution of its R3 variant, the concentration was 50 nM, 25 nM, 12.5 nM, 6.25 nM and 3.13 nM, and in the solutions of its R4 and R5 variants, the concentration was 25 nM, 12.5 nM, 6.25 nM, 3.13 nM and 1.56 nM. In the anti-IL-12 antibody solution, the concentration was 50 nM, 25 nM, 12.5 nM, 6.25 nM and 3.13 nM, in the solution of its R3 variant, the concentration was 25 nM, 12.5 nM, 6.25 nM, 3.13 nM and 1.56 nM, and in the solution of its R4 variant, the concentration was 12.5 nM, 6.25 nM, 3.13 nM, 1.56 nM and 0.78 nM.
(§4) The antibody solutions for measurement at each concentration were delivered to Biacore (registered trademark) 8K (Cytiva) (association time of 120 seconds and dissociation time of 1200 seconds). Measurement data was analyzed using Biacore (registered trademark) Evaluation software, and the data on the affinity of each antibody for an antigen was obtained.

Binder | KD ratio
B4 | 1
B5 | 7.1
B6 | 2.4
B7 | 4.2
B8 | 1
B9 | 4.6
B10 | 2.9
B11 | 2.4

target: T2, interleukin 8 (CXCL8) (100-175: …); assay: as above
Protocol: as §3, §4

Binder | KD ratio
B12 | 1
B13 | 2.8
B14 | 4.2
B15 | 1.4
B16 | 1
B17 | 6.4
B18 | 4.9
B19 | 2.6

target: T3, human IL6 protein, His and GST tags …; assay: SPR (Biacore 8K), antigen immobilized on CM4 chip, antibody as analyte
Protocol: as §3, §4

Binder | Kd
B4 | 0.198 nM
B5 | 0.0279 nM
B6 | 0.0812 nM
B7 | 0.0472 nM
B8 | 20.4 nM
B9 | 4.4 nM
B10 | 7.16 nM
B11 | 8.38 nM

target: T2, interleukin 8 (CXCL8) (100-175: …); assay: as above
Protocol: as §3, §4

Binder | Kd
B12 | 1.64 nM
B13 | 0.595 nM
B14 | 0.389 nM
B15 | 1.17 nM
B16 | 15.3 nM
B17 | 2.4 nM
B18 | 3.14 nM
B19 | 5.8 nM
